Measurements: PMC2807882, “Conservation of DNA-binding specificity and oligomerisation properties within the p53 family”

How the values were obtained:
[1] = target: Mmp53 (Mus musculus, UniProt P02340 1-390); experiment: fluorescence anisotropy, direct; 25 mM NaPi, 225 mM NaCl, 10% v/v glycerol, 5 mM DTT, 0.2 mg/mL BSA, 22°C; 20 nM labelled DNA; pH not stated for the binding assay; details: protein: recombinant; tags: N-terminal 6xHis-lipoyl-TEV tag, cleaved; chain copies: 4; label: 5'-Alexa488
[2] = target: T1, ΔNp63α (Homo sapiens, UniProt Q9H3D4-2 1-586); experiment: as above; details: protein: recombinant; tags: N-terminal 6xHis-lipoyl-TEV tag, cleaved; chain copies: 4; label: 5'-Alexa488
T1 sequence: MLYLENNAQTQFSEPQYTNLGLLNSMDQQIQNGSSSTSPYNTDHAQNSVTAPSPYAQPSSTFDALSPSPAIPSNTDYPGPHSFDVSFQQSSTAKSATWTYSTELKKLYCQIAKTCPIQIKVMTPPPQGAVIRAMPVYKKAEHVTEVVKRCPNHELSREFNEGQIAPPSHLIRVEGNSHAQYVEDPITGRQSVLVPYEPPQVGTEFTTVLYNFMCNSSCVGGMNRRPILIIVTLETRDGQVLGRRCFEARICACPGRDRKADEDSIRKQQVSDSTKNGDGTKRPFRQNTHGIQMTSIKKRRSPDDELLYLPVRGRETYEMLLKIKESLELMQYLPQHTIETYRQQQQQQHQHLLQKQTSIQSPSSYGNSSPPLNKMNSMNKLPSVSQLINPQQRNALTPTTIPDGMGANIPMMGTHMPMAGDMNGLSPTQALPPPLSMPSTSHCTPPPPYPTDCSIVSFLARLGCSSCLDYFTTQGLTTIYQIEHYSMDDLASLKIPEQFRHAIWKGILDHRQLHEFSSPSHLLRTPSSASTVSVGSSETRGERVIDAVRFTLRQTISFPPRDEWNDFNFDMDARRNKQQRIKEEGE

[3] = target: T2, ΔNp73β (Homo sapiens, UniProt O15350-9 1-450); experiment: as above; details: protein: recombinant; tags: N-terminal 6xHis-lipoyl-TEV tag, cleaved; chain copies: 4; label: 5'-Alexa488
T2 sequence: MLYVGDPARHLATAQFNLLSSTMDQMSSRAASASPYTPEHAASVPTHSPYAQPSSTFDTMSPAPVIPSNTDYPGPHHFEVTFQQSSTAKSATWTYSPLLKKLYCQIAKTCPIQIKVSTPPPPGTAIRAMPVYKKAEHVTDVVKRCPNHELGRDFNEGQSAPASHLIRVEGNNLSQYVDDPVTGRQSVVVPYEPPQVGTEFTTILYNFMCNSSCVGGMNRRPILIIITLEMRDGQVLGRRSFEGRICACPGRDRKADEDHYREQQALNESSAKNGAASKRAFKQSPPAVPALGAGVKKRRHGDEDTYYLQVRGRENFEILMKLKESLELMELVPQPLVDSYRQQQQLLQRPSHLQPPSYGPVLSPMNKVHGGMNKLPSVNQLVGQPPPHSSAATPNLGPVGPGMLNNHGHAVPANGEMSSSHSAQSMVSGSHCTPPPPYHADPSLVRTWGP

[4] = target: Xlp53 (Xenopus laevis, UniProt Q7T1D0 1-362); experiment: as above; details: protein: recombinant; tags: N-terminal 6xHis-lipoyl-TEV tag, cleaved; chain copies: 4; label: 5'-Alexa488
[5] = target: T3, Drp53 (Danio rerio, UniProt P79734 1-373); experiment: fluorescence anisotropy competition titration; 25 mM sodium phosphate (purification buffer pH 7.2), 225 mM NaCl, 10% v/v glycerol, 5 mM DTT, 0.2 mg/mL BSA, 22 C; details: protein: recombinant; tags: N-terminal 6xHis-lipoyl-TEV tag, cleaved; chain copies: 4
T3 sequence: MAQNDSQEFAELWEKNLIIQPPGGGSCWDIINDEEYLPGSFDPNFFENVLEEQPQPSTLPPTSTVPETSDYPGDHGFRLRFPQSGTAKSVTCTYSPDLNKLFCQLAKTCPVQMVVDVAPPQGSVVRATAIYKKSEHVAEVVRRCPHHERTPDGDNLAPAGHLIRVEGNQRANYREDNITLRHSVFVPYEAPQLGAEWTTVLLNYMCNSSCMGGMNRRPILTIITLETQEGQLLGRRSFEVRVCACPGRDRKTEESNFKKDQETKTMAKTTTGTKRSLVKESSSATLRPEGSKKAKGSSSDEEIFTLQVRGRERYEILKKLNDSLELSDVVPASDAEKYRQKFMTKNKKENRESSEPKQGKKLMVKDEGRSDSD

[6] = target: T4, Dmp53 (Drosophila melanogaster, UniProt Q9N6D8 1-385); experiment: as above; details: protein: recombinant; tags: N-terminal 6xHis-lipoyl-TEV tag, cleaved; chain copies: 4
T4 sequence: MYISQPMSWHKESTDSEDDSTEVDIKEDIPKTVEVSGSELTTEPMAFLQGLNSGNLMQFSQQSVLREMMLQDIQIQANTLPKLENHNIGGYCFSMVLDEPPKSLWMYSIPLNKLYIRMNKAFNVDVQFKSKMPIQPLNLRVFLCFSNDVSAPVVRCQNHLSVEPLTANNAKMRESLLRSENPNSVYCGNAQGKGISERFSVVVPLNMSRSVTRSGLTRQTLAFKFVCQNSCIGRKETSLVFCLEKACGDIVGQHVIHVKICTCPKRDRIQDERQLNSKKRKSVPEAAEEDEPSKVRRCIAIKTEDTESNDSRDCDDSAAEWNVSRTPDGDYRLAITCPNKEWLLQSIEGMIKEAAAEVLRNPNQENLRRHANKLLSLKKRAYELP

Chain of Mmp53 (P02340 whole entry): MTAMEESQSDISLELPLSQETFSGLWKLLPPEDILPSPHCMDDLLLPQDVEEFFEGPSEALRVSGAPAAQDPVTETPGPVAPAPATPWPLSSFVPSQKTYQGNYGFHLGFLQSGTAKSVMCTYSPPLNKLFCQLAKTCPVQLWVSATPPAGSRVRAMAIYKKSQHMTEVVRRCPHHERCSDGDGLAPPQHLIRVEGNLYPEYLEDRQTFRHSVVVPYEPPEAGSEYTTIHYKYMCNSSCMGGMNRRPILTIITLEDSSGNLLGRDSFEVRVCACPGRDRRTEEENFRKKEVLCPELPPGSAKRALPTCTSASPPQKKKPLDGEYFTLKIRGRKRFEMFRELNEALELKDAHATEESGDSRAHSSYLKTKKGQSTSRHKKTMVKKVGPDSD
Chain of Xlp53 (Q7T1D0 entry or part of it): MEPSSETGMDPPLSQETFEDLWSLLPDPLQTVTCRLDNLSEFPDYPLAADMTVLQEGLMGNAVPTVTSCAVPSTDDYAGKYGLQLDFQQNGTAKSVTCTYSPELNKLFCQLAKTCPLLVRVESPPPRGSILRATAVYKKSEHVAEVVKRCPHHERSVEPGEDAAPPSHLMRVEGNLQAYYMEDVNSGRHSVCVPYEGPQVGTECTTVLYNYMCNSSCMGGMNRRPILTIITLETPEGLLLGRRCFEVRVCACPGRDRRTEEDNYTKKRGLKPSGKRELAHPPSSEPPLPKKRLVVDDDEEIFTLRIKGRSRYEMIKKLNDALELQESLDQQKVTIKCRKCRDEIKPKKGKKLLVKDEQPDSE

Binder	Kd [1]	Kd [2]	Kd [3]	Kd [4]	Kd [5] [nM]	Kd [6] [nM]
Ref_Alexa488 (dsDNA) DNA 1: GGACATGTCCGGACATGTCC DNA 2: GGACATGTCCGGACATGTCC	-7.02 ± 0.04 log10(M)	-7.12 ± 0.01 log10(M)	-7.26 ± 0.02 log10(M)	-7.32 ± 0.02 log10(M)		
Ref competitor (dsDNA) DNA 1: CGCGGACATGTCCGGACATGTCCCGC DNA 2: GCGGGACATGTCCGGACATGTCCGCG					38	27.5
